Target: recombinant His-tagged canine interleukin-13 (cIL-13) (canine) (UniProt Q9N0W9)
Experiment: cell-based or functional assay

recombinant His-tagged canine interleukin-13 (cIL-13) (canine), sequence (Q9N0W9 other isoform, or with tags, fused parts or gaps): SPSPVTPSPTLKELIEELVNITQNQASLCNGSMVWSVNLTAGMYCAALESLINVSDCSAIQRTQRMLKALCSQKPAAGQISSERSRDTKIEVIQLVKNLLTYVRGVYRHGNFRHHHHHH

IL-13-dependent TF-1 cell proliferation inhibition IC50: 2.9 to 4.2 nM | Inhibitory Activity on TF-1 Cell Proliferation, IC50: 3.97 nM
B1: mouse monoclonal antibody 32A10-#20 (antibody, from another filing, V domains shown)
VH: EVQLQQSGPELVKPGASVKVSCKTSGYSFTDYPIYWVRQSHGESLEWIGYIDPYNGGTTYNQNFKDKATLTVDKSSSTAFMHLNSLTSEDSAVYFCATAVVATDVMENWGQGTSVTVSS
VL: DIVLTQSQKFMSTSVGDRVSITCKASQNVRNAVAWFQQKPGQSPKALIYLASNRYTGVPDHFTGSGSGTDFTLTISNVQSEDLADYFCLQHWNYPLTFGAGTKLELK
